{
  "source": "paper PMC9989928",
  "conditions_in_all_cases": "glycan lost; control: wild-type VMO1-myc-his6",
  "key": {"[1]": {"experiment": "cycloheximide chase, western blot of lysates"}, "[2]": {"experiment": "anti-myc western blot of total cell lysates"}, "[3]": {"experiment": "anti-myc western blot of conditioned media"}},
  "data": [
    {"protein": "vitelline membrane outer layer protein 1 homolog (VMO1): W105F (protein) parent chain: MERGAGAKLLPLLLLLRATGFTCAQTDGRNGYTAVIEVTSGGPWGDWAWPEMCPDGFFASGFSLKVEPPQGIPGDDTALNGIRLHCARGNVLGNTHVVESQSGSWGEWSEPLWCRGGAYLVAFSLRVEAPTTLGDNTAANNVRFRCSDGEELQGPGLSWGDFGDWSDHCPKGACGLQTKIQGPRGLGDDTALNDARLFCCRS", "values": [
      {"measurement": "degradation_or_half_life", "setting": "[1]", "value": "increases"},
      {"measurement": "expression_or_secretion", "setting": "[2]", "value": "increases"},
      {"measurement": "expression_or_secretion", "setting": "[3]", "value": "no change"}
    ]}
  ]
}
